According to the RNAGym collection of RNA variant scans (doi:10.7554/elife.80360):

B1: Twister Ribozyme (parent)
chain: AACACUGCCAAUGCCGGUCCCAAGCCCGGAUAAAAGUGGAGGGGGCGG

Variants of: B1
Assay: self-cleavage, relative activity (ratio to wild type); higher = more cleavage; co-transcriptional

Variant	self-cleavage
C19U G44U	0.86
C19U G44C	0.608
C19U G44A	1.03
A22C A33G	0.802
C20A G36A	0.0747
C21A C46G	0.173
C21A C46U	0.13
C21A C46A	0.0995
C21G G28U	0.0788
C21G G28A	0.124
C21G G28C	0.0382
C21G U37C	0.0765
C21G U37A	0.101
C20U C26G	0.0973
C21G G36U	0.0888
C21G G36A	0.0998
C20U A33G	0.988
C20U A33C	0.894
A22C G41C	0.195
C19U G48A	0.915
C19U A34U	0.56
C21U A22U	0.072
C20U A40U	0.125
C20U A40G	0.149

Variant	self-cleavage
C21U U37G	0.0506
C21U U37C	0.0764
C21A G24C	0.0911
C21A G24A	0.0758
C19U A40G	0.108
C21G G48C	0.0934
C21G G48U	0.0902
C20U G47C	0.165
C20U G47U	0.564
C21U A30U	0.141
C21U A30C	0.0806
C21U A32C	0.107
C21U A32U	0.127
C21G A34U	0.0291
C21G A34G	0.0977
A22C A40U	0.152
A22C A40C	0.102
C20U A23U	0.17
C20U G36A	0.216
C21G G41U	0.32
C21G G41C	0.577
C20A G28C	0.125
C20A G28A	0.0974
C20A G28U	0.0952

Variant	self-cleavage
C20A C26U	0.0622
C20A C26A	0.0889
C21G A30U	0.0816
C21U G29A	0.096
C21U G29C	0.0653
C20U G39A	0.288
C20G A35C	0.14
C21G G44C	0.0843
C21G G44U	0.102
C21G G44A	0.0938
C21U C26U	0.0769
C21U C26G	0.0581
C21G G39A	0.0549
C21G G39C	0.128
A22C G39A	0.238
A22C C27A	0.768
A22C C27G	0.101
C21U G39A	0.0714
C20U C27G	0.0816
C20U C27A	0.171
C20U C27U	0.708
C21G A32G	0.0254
C21G A32C	0.0636
C21U G45A	0.123

Variant	self-cleavage
C21U G45C	0.0779
C21A C26A	0.069
C21A C26U	0.07
C19U U31C	0.971
C19U U31G	0.956
C19U U31A	0.682
C19U G47C	0.235
C20G U37G	0.0665
C20U C25G	0.088
C20U C25U	0.545
C21A A23U	0.091
C20G A34C	0.0838
C21U U31C	0.103
C21U U31A	0.105
C21U A34G	0.0608
C21U A34U	0.11
C20A G39U	0.0846
C20A G39C	0.0811
C20G A23G	0.0348
C20U G42A	0.935
C20U G42U	0.399
C21A G38C	0.101
C21A C27U	0.0904
C21A C27G	0.0914

Variant	self-cleavage
C21A C27A	0.0685
C21U G48A	0.131
C21U G48U	0.125
C21U G48C	0.133
C20U A30U	1.05
C20U A30C	0.533
C20U A30G	0.823
C20G A40G	0.104
C20U G41U	0.141
C20U G41A	0.124
C20A A22G	0.0601
C20A A22U	0.0761
C19U G28C	0.908
C19U G38U	0.36
C19U G38A	0.855
C19U G38C	0.782
C21A A22U	0.0641
C20U U31C	1.03
C20U U31G	0.873
C20A G47U	0.103
A22C C26U	0.631
A22C C26G	0.112
A22C G24U	0.0876
A22C G24A	0.131

Variant	self-cleavage
A22C G24C	0.0817
C21G C46U	0.0875
C19U C21G	0.107
C19U C21A	0.0697
C21U G44C	0.0722
C21U G44A	0.126
C21G A40C	0.0546
C21G A40G	0.0831
C20G C46G	0.126
C19U A30G	0.918
C21G A33G	0.03
C21G A33C	0.152
C21G G42U	0.111
C20G A22G	0.0602
C20A C21A	0.0664
C20A C21G	0.0829
C20A C21U	0.0931
A22C G42U	0.198
C20G G43A	0.0749
C21A G44C	0.0966
C20A C27A	0.0891
C20A C27G	0.0759
C20A C27U	0.0852
C19U G45C	0.38

Variant	self-cleavage
C19U G45A	0.915
C20U G44C	0.816
C20U G44A	1
C20U G44U	0.893
C21A G29U	0.134
C20A A34C	0.102
C20A G42U	0.668
C20A G42A	0.107
C20A U37A	0.0773
C20A U37G	0.109
C20A U37C	0.111
C21G C27A	0.0855
C20U G43U	0.146
C20U G43A	0.177
C21G U31A	0.0515
C21G U31C	0.0753
C20U G45U	0.802
C20G G28A	0.141
C20G G28C	0.171
C20G C21G	0.103
C20G C21A	0.0754
C21A A35C	0.083
C21A A35G	0.0738
